Data taken from PMC9482650, “Quantitative fragmentomics allow affinity mapping of interactomes” (Nature Communications, 2022).
Blank lines part the entries; values can stand above or below the binder they belong to.

Key:
Experiment in all cases: holdup assay
Design in all cases: key: below the threshold = too weak to quantify, mostly under pKd 3.1 to 4
[1] = biological target: T1, MPP7, Q5T2T1
T1 sequence (Q5T2T1 134-230, limits assumed, looked up): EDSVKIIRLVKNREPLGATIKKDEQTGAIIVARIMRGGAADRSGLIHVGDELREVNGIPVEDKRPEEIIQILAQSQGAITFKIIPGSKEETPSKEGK

[2] = biological target: T2, DFNB31_2, Q9P202
T2 sequence (Q9P202 274-371, limits assumed, looked up): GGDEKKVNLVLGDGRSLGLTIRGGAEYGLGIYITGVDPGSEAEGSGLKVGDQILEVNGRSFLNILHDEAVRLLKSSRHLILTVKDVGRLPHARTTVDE

[3] = biological target: T3, ARHGAP21, Q5T5U3
T3 sequence (Q5T5U3 45-169, limits assumed, looked up): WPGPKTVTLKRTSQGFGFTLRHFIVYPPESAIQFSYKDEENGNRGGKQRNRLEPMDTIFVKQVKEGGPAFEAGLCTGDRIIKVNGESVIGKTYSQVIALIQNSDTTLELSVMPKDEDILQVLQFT

[4] = biological target: TJP1_2, Q07157
Chain of TJP1_2, Q07157 (Q07157 181-274): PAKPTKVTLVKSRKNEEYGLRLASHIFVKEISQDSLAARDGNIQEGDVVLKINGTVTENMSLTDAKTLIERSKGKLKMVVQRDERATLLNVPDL

[5] = biological target: MAGI2_2, Q86UL8
Chain of MAGI2_2, Q86UL8 (Q86UL8 410-522): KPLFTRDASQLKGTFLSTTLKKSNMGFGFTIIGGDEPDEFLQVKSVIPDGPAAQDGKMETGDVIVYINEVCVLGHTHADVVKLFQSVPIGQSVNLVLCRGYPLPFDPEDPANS

[6] = biological target: T4, MPDZ_5, O75970
T4 sequence (O75970 695-796, limits assumed, looked up): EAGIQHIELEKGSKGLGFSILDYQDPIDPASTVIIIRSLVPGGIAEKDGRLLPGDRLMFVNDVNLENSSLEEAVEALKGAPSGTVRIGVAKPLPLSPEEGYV

[7] = biological target: T5, PDZD2_2, O15018
T5 sequence (O15018 329-429, limits assumed, looked up): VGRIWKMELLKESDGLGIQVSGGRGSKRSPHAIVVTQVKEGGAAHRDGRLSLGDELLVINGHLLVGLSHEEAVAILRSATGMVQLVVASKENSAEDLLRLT

[8] = biological target: T6, MPDZ_10, O75970
T6 sequence (O75970 1624-1722, limits assumed, looked up): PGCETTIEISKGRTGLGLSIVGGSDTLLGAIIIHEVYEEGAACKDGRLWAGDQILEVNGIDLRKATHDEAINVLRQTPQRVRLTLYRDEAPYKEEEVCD

[9] = biological target: MAGI3_2, Q5TCQ9
Chain of MAGI3_2, Q5TCQ9 (Q5TCQ9 398-503): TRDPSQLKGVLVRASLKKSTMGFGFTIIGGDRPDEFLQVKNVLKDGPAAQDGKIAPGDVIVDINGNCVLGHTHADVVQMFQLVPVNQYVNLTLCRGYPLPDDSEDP

[10] = biological target: Inadl_3, Q8NI35
Chain of Inadl_3, Q8NI35 (Q8NI35 359-469): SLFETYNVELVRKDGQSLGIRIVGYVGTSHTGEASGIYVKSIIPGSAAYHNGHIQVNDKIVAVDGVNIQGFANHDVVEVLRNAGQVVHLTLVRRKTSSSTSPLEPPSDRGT

[11] = biological target: IL16_1, Q14005
Chain of IL16_1, Q14005 (Q14005 210-306): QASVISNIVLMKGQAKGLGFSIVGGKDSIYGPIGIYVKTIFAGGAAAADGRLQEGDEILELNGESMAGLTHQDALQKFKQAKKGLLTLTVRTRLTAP

[12] = biological target: T7, GRIP1_4, Q9Y3R0
T7 sequence (Q9Y3R0 467-571, limits assumed, looked up): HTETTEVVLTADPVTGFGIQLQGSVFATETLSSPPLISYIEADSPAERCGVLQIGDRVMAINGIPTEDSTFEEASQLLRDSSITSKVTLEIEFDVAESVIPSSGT

[13] = biological target: LIMK2, P53671
Chain of LIMK2, P53671 (P53671 143-248): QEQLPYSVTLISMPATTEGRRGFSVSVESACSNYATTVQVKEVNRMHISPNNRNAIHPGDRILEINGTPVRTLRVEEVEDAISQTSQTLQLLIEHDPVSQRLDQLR

[14] = biological target: HTRA1, Q92743
Chain of HTRA1, Q92743 (Q92743 360-477): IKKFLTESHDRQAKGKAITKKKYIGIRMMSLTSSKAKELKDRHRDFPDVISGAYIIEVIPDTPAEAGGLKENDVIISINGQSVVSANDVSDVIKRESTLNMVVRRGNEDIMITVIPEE

[15] = biological target: T8, MPDZ_12, O75970
T8 sequence (O75970 1857-1958, limits assumed, looked up): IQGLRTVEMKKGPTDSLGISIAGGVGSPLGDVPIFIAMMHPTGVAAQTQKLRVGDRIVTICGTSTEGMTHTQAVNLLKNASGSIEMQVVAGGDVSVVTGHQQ

[16] = biological target: T9, DLG3_2, Q92796
T9 sequence (Q92796 221-321, limits assumed, looked up): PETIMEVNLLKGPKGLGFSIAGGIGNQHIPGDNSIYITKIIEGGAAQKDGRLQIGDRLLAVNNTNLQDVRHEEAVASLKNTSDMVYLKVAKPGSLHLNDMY

[17] = biological target: PDLIM1, O00151
Chain of PDLIM1, O00151 (O00151 1-87): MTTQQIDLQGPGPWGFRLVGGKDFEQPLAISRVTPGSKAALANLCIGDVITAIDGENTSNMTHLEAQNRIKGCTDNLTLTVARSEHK

[18] = biological target: T10, DFNB31_3, Q9P202
T10 sequence (Q9P202 811-907, limits assumed, looked up): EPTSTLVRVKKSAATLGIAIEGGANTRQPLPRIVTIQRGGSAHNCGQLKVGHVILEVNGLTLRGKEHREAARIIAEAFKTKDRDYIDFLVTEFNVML

[19] = biological target: T11, SNTA1, Q13424
T11 sequence (Q13424 82-180, limits assumed, looked up): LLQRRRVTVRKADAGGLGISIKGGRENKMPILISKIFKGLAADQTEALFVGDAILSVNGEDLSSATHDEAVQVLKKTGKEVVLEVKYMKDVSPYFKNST

[20] = biological target: T12, TX1BP3, O14907
T12 sequence (O14907 10-122, limits assumed, looked up): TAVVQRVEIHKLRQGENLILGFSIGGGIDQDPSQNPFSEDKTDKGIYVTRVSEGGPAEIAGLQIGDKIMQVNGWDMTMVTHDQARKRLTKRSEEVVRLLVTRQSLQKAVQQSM

[21] = biological target: FRMPD3, Q5JV73
Chain of FRMPD3, Q5JV73 (Q5JV73 12-100): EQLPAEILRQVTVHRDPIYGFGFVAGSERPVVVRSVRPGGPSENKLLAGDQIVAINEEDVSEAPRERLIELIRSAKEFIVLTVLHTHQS

[22] = biological target: GRIP2_6, Q9C0E4
Chain of GRIP2_6, Q9C0E4 (Q9C0E4 648-740): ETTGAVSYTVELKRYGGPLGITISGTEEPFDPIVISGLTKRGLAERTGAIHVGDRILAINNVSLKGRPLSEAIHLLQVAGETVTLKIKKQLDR

[23] = biological target: Inadl_4, Q8NI35
Chain of Inadl_4, Q8NI35 (Q8NI35 547-651): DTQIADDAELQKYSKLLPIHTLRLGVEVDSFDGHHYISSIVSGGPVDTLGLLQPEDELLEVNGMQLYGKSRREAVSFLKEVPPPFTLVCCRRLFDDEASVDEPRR

[24] = biological target: T13, PDZRN3_1, Q9UPQ7
T13 sequence (Q9UPQ7 244-349, limits assumed, looked up): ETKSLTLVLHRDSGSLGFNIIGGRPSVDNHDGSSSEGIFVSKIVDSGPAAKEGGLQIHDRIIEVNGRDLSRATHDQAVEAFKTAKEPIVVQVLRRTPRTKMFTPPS

[25] = plain residues with an end cap or a label only (N-terminal biotin on a linker: ado-ado)
[26] = plain residues with an end cap or a label only (N-terminal biotin on a linker: ahx)

pKd [1, 25]: 3.48
pKd [2, 25]: below the threshold
pKd [3, 25]: below the threshold
pKd [4, 25]: below the threshold
pKd [5, 25]: below the threshold
pKd [6, 25]: below the threshold
pKd [7, 25]: 4.65
pKd [8, 25]: below the threshold
pKd [9, 25]: below the threshold
pKd [10, 25]: below the threshold
pKd [11, 25]: below the threshold
pKd [12, 25]: below the threshold
pKd [13, 25]: below the threshold
pKd [14, 25]: below the threshold
pKd [15, 25]: below the threshold
pKd [16, 25]: 4.25
pKd [17, 25]: below the threshold
pKd [18, 25]: 3.97
pKd [19, 25]: 5.09
pKd [20, 25]: below the threshold
pKd [21, 25]: below the threshold
pKd [22, 25]: below the threshold
pKd [23, 25]: below the threshold
pKd [24, 25]: 4
B1: SLC16A7, O60669 (peptide)
chain: SVTSERETNI

pKd [1, 25]: below the threshold
pKd [2, 25]: below the threshold
pKd [3, 25]: below the threshold
pKd [4, 25]: below the threshold
pKd [5, 25]: below the threshold
pKd [6, 25]: below the threshold
pKd [7, 25]: below the threshold
pKd [8, 25]: below the threshold
pKd [9, 25]: below the threshold
pKd [10, 25]: below the threshold
pKd [11, 25]: below the threshold
pKd [12, 25]: below the threshold
pKd [13, 25]: below the threshold
pKd [14, 25]: below the threshold
pKd [15, 25]: below the threshold
pKd [16, 25]: below the threshold
pKd [17, 25]: below the threshold
pKd [18, 25]: below the threshold
pKd [19, 25]: below the threshold
pKd [20, 25]: below the threshold
pKd [21, 25]: below the threshold
pKd [22, 25]: below the threshold
pKd [23, 25]: below the threshold
pKd [24, 25]: below the threshold
B2: MKNK1, Q9BUB5 (peptide)
chain: GEDRSPPTAL

pKd [1, 25]: below the threshold
pKd [2, 25]: below the threshold
pKd [3, 25]: below the threshold
pKd [4, 25]: below the threshold
pKd [5, 25]: 4.08
pKd [6, 25]: below the threshold
pKd [7, 25]: below the threshold
pKd [8, 25]: below the threshold
pKd [9, 25]: below the threshold
pKd [10, 25]: below the threshold
pKd [11, 25]: below the threshold
pKd [12, 25]: below the threshold
pKd [13, 25]: below the threshold
pKd [14, 25]: 4.17
pKd [15, 25]: below the threshold
pKd [16, 25]: 4.21
pKd [17, 25]: 5.09
pKd [18, 25]: 3.5
pKd [19, 25]: below the threshold
pKd [20, 25]: 3.85
pKd [21, 25]: below the threshold
pKd [22, 25]: 4.67
pKd [23, 25]: below the threshold
pKd [24, 25]: below the threshold
B3: MYOT, Q9UBF9 (peptide)
chain: QSGLYESEEL

pKd [1, 26]: below the threshold
pKd [2, 26]: below the threshold
pKd [3, 26]: 3.64
pKd [4, 26]: below the threshold
pKd [5, 26]: below the threshold
pKd [6, 26]: below the threshold
pKd [7, 26]: below the threshold
pKd [8, 26]: below the threshold
pKd [9, 26]: below the threshold
pKd [10, 26]: 3.66
pKd [11, 26]: below the threshold
pKd [12, 26]: below the threshold
pKd [13, 26]: below the threshold
pKd [14, 26]: below the threshold
pKd [15, 26]: below the threshold
pKd [16, 26]: 3.76
pKd [17, 26]: below the threshold
pKd [18, 26]: below the threshold
pKd [19, 26]: below the threshold
pKd [20, 26]: below the threshold
pKd [21, 26]: 3.78
pKd [22, 26]: below the threshold
pKd [23, 26]: below the threshold
pKd [24, 26]: below the threshold
B4: ACE2, Q9BYF1 (peptide)
chain: QNTDDVQTSF

pKd [1, 25]: 4.27
pKd [2, 25]: below the threshold
pKd [3, 25]: 4.02
pKd [4, 25]: 4.32
pKd [5, 25]: below the threshold
pKd [6, 25]: below the threshold
pKd [7, 25]: 4.17
pKd [8, 25]: below the threshold
pKd [9, 25]: below the threshold
pKd [10, 25]: 4.63
pKd [11, 25]: below the threshold
pKd [12, 25]: below the threshold
pKd [13, 25]: below the threshold
pKd [14, 25]: 3.9
pKd [15, 25]: 3.48
pKd [16, 25]: 4.09
pKd [17, 25]: below the threshold
pKd [18, 25]: 3.9
pKd [19, 25]: below the threshold
pKd [20, 25]: 4.09
pKd [21, 25]: below the threshold
pKd [22, 25]: 4.68
pKd [23, 25]: below the threshold
pKd [24, 25]: below the threshold
B5: PTTG2, Q9NZH5 (peptide)
chain: LPAVCYDIDI

pKd [1, 25]: below the threshold
pKd [2, 25]: below the threshold
pKd [3, 25]: below the threshold
pKd [4, 25]: below the threshold
pKd [5, 25]: 4.44
pKd [6, 25]: below the threshold
pKd [7, 25]: below the threshold
pKd [8, 25]: below the threshold
pKd [9, 25]: 4.55
pKd [10, 25]: below the threshold
pKd [11, 25]: below the threshold
pKd [12, 25]: below the threshold
pKd [13, 25]: below the threshold
pKd [14, 25]: below the threshold
pKd [15, 25]: below the threshold
pKd [16, 25]: below the threshold
pKd [17, 25]: below the threshold
pKd [18, 25]: 4.08
pKd [19, 25]: 3.58
pKd [20, 25]: 3.76
pKd [21, 25]: below the threshold
pKd [22, 25]: below the threshold
pKd [23, 25]: below the threshold
pKd [24, 25]: 3.6
B6: OR8G1, Q15617 (peptide)
chain: KKMLQRRTLL
